Data reported in patent US20200261595A1 (Novo Nordisk, published 2020).
Positions count from the first letter of the chain named. Names may count otherwise.

B1: (A14E, A21G, A22(GQEP)19, A98K^, A99P, B25H, B29R, desB30 human insulin)/(227A, 234A, 235K, 297E, 315Q, 384Q, des447 hIgG4-Fc(228-447)) … (other)
chain 1: GIVEQCCTSICSLEQLENYCGGQEPGQEPGQEPGQEPGQEPGQEPGQEPGQEPGQEPGQEPGQEPGQEPGQEPGQEPGQEPGQEPGQEPGQEPGQEPKP
chain 2: FVNQHLCGSHLVEALYLVCGERGFHYTPR
chain 3: ASCPAPEAKGGPSVFLFPPKPKDTLMISRTPEVTCVVVDVSQEDPEVQFNWYVDGVEVHNAKTKPREEQFESTYRVVSVLTVLHQDWLQGKEYKCKVSNKGLPSSIEKTISKAKGQPREPQVYTLPPSQEEMTKNQVSLTCLVKGFYPSDIAVEWESQGQPENNYKTTPPVLDSDGSFFLYSRLTVDKSRWQEGNVFSCSVMHEALHNHYTQKSLSLSLG
modifications: Cys229 (EU numbering) sulphur bound to an acetyl arm of the linker; A98K N(eps) acylated by the trivalent linker 4-[bis[2-[(2-acetyl)amino]ethyl]amino]-4-oxo-butanoyl
notes: also called Ex 5.12
B2: A14E, A21G, A22(GQAPGQAPGQEP)6-GQAP, A98K^, A99P, B3Q, B25H, B29R, desB30 human insulin/(227A, 234A, 235K, 297E, 315Q, 384Q, des447 hIgG4-Fc(228-447)) … (other)
chain 1: GIVEQCCTSICSLEQLENYCGGQAPGQAPGQEPGQAPGQAPGQEPGQAPGQAPGQEPGQAPGQAPGQEPGQAPGQAPGQEPGQAPGQAPGQEPGQAPKP
chain 2: FVQQHLCGSHLVEALYLVCGERGFHYTPR
chain 3: B1 chain 3
modifications: Cys229 (EU numbering) sulphur bound to an acetyl arm of the linker; A98K N(eps) acylated by the trivalent linker 4-[bis[2-[(2-acetyl)amino]ethyl]carbamoylamino]butanoyl
notes: also called Ex 5.24
B3: (A14A, A21G, A22(GQAP)18, A94G, A95Q, A96A, A97K^, A98P, B29R, desB30 human insulin)/(227A, 234A, 235K, 297E, 315Q, 384Q, des447 hIgG4-Fc(228-447)) … (other)
chain 1: GIVEQCCTSICSLAQLENYCGGQAPGQAPGQAPGQAPGQAPGQAPGQAPGQAPGQAPGQAPGQAPGQAPGQAPGQAPGQAPGQAPGQAPGQAPGQAKP
chain 2: FVNQHLCGSHLVEALYLVCGERGFFYTPR
chain 3: B1 chain 3
modifications: Cys229 (EU numbering) sulphur bound to an acetyl arm of the linker; A97K N(eps) acylated by the trivalent linker 4-[bis[2-[(2-acetyl)amino]ethyl]amino]-4-oxo-butanoyl
notes: also called Ex 5.25
B4: A14E, A21G, A22(GQEP)12, A70K^, A71P, B25H, B29R, desB30 human insulin/(227A, 234A, 235K, 297E, 315Q, 384Q, des447 hIgG4-Fc(228-447)) … (other)
chain 1: GIVEQCCTSICSLEQLENYCGGQEPGQEPGQEPGQEPGQEPGQEPGQEPGQEPGQEPGQEPGQEPGQEPKP
chain 2: FVNQHLCGSHLVEALYLVCGERGFHYTPR
chain 3: B1 chain 3
modifications: Cys229 (EU numbering) sulphur bound to an acetyl arm of the linker; A70K N(eps) acylated by the trivalent linker 4-[bis[2-[(2-acetyl)amino]ethyl]amino]-4-oxo-butanoyl
notes: also called Ex 5.17
B5: A14E, A21G, A22(GQAPGQAPGQEP)6-GQAP, A98K^, A99P, B29R, desB30 human insulin/(227A, 234A, 235K, 297E, 315Q, 384Q, des447 hIgG4-Fc(228-447)) … (other)
chain 1: B2 chain 1
chain 2: FVNQHLCGSHLVEALYLVCGERGFFYTPR
chain 3: B1 chain 3
modifications: Cys229 (EU numbering) sulphur bound to an acetyl arm of the linker; A98K N(eps) acylated by the trivalent linker 4-[bis[2-[(2-acetyl)amino]ethyl]amino]-4-oxo-butanoyl
B6: A14E, A21Q, A22(G)18, A40K^, B25H, B29R, desB30 human insulin/(227A, 234A, 235K hIgG4-Fc(228-447)) 4-[bis[2-[(2-acetyl)amino]ethyl]amino]-4-oxo-butanoyl … (other)
chain 1: GIVEQCCTSICSLEQLENYCQGGGGGGGGGGGGGGGGGGK
chain 2: FVNQHLCGSHLVEALYLVCGERGFHYTPR
chain 3: ASCPAPEAKGGPSVFLFPPKPKDTLMISRTPEVTCVVVDVSQEDPEVQFNWYVDGVEVHNAKTKPREEQFNSTYRVVSVLTVLHQDWLNGKEYKCKVSNKGLPSSIEKTISKAKGQPREPQVYTLPPSQEEMTKNQVSLTCLVKGFYPSDIAVEWESNGQPENNYKTTPPVLDSDGSFFLYSRLTVDKSRWQEGNVFSCSVMHEALHNHYTQKSLSLSLGK
modifications: Cys229 (EU numbering) sulphur bound to an acetyl arm of the linker; A40K N(eps) acylated by the trivalent linker 4-[bis[2-[(2-acetyl)amino]ethyl]amino]-4-oxo-butanoyl
notes: also called Ex 5.21
B7: A14E, A21G, A22(GQAPGQEP)6, A70K^, A71P, B25H, B29R, desB30 human insulin/(227A, 234A, 235K hIgG4-Fc(228-447)) … (other)
chain 1: B4 chain 1 with E24A, E32A, E40A, E48A, E56A, E64A
chain 2: FVNQHLCGSHLVEALYLVCGERGFHYTPR
chain 3: B6 chain 3
modifications: Cys229 (EU numbering) sulphur bound to an acetyl arm of the linker; A70K N(eps) acylated by the trivalent linker 4-[bis[2-[(2-acetyl)amino]ethyl]amino]-4-oxo-butanoyl
notes: also called Ex 5.9
B8: (A1(N(alpha)acetyl), A14E, A21G, A22(GQAP)19, A98K^, A99P, B1(N(alpha)acetyl), B25H, B29R, desB30 human insulin)/(227A, 234A, 235K, 297E, 315Q, 384Q, des447 … (other)
chain 1: B2 chain 1 with E32A, E44A, E56A, E68A, E80A, E92A
chain 2: FVNQHLCGSHLVEALYLVCGERGFHYTPR
chain 3: B1 chain 3
modifications: Cys229 (EU numbering) sulphur bound to an acetyl arm of the linker; B1 N(alpha)-acetyl; A1 N(alpha)-acetyl; A98K N(eps) acylated by the trivalent linker 4-[bis[2-[(2-acetyl)amino]ethyl]amino]-4-oxo-butanoyl
notes: Chemical insulin-Fc conjugate; also called Ex 5.27
B9: (A14E, A21G, A22(GQEP)19, 98K^, A99P, B25H, B29R, desB30 human insulin)/(226A, 227G, 228P, 234A, 235K, des447 hIgG4-Fc(228-447)) … (other)
chain 1: B1 chain 1
chain 2: FVNQHLCGSHLVEALYLVCGERGFHYTPR
chain 3: AGPCPAPEAKGGPSVFLFPPKPKDTLMISRTPEVTCVVVDVSQEDPEVQFNWYVDGVEVHNAKTKPREEQFNSTYRVVSVLTVLHQDWLNGKEYKCKVSNKGLPSSIEKTISKAKGQPREPQVYTLPPSQEEMTKNQVSLTCLVKGFYPSDIAVEWESNGQPENNYKTTPPVLDSDGSFFLYSRLTVDKSRWQEGNVFSCSVMHEALHNHYTQKSLSLSLG
modifications: Cys229 (EU numbering) sulphur bound to an acetyl arm of the linker; A98K N(eps) acylated by the trivalent linker 3,5-bis[(2-acetyl)amino]benzoyl
B10: A14E, A21G, A22(GQEP)3, A34G, A35Q, A36E, A37K^, A38P, B25H, B29R, desB30 human insulin/(227A, 234A, 235K hIgG4-Fc(228-447)) … (other)
chain 1: GIVEQCCTSICSLEQLENYCGGQEPGQEPGQEPGQEKP
chain 2: FVNQHLCGSHLVEALYLVCGERGFHYTPR
chain 3: B6 chain 3
modifications: Cys229 (EU numbering) sulphur bound to an acetyl arm of the linker; A37K N(eps) acylated by the trivalent linker 4-[bis[2-[(2-acetyl)amino]ethyl]amino]-4-oxo-butanoyl
notes: also called Ex 5.10
B11: A14E, A21G, A22(GQEP)19, A98K^, A99P, B3Q, B25H, B29R, desB30 human insulin/(227A, 234A, 235K hIgG4-Fc(228-447)) … (other)
chain 1: B1 chain 1
chain 2: FVQQHLCGSHLVEALYLVCGERGFHYTPR
chain 3: B6 chain 3
modifications: Cys229 (EU numbering) sulphur bound to an acetyl arm of the linker; A98K N(eps) acylated by the trivalent linker 4-[bis[2-[(2-acetyl)amino]ethyl]amino]-4-oxo-butanoyl
notes: also called Ex 5.6

Each binder was assayed against insulin receptor of isolated rat adipocytes (rat, UniProt P15127 27-1383) (assay: cell-based or functional assay).
Chain of insulin receptor of isolated rat adipocytes (P15127 27-1383): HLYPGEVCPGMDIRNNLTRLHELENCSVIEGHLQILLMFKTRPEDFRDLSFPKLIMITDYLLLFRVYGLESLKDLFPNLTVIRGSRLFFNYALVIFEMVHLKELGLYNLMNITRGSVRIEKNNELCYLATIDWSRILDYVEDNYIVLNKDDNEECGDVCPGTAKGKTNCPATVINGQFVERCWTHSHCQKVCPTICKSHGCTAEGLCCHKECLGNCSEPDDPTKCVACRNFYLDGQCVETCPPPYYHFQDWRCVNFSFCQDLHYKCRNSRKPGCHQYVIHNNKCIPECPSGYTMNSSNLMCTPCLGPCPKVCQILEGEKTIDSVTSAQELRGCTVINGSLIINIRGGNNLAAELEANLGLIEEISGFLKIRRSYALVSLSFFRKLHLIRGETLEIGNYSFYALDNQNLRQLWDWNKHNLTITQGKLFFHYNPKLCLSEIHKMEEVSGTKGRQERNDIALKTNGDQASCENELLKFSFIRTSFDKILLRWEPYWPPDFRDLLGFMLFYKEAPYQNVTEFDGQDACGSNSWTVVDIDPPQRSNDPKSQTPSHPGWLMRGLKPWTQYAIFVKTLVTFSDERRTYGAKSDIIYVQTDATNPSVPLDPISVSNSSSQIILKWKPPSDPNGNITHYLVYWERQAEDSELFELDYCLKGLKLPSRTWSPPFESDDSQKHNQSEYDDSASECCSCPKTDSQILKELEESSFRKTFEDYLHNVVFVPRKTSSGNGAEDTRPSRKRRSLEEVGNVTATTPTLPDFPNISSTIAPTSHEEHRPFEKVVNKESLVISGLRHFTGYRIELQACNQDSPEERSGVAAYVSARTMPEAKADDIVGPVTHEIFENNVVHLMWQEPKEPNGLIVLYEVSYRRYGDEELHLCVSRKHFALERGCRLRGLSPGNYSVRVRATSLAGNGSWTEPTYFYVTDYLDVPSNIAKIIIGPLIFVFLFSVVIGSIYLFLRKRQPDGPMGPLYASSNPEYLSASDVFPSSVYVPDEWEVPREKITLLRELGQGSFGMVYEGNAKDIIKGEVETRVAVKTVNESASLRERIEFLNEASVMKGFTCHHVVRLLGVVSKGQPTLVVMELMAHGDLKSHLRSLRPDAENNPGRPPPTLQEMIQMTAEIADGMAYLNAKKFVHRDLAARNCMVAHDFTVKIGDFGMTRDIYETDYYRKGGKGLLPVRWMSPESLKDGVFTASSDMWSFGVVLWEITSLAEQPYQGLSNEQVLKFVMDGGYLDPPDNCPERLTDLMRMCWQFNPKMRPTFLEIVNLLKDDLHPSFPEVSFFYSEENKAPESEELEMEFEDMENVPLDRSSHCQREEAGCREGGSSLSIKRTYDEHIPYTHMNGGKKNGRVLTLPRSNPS
For B1, the “Lipogenesis in rat adipocytes [Potency (%)] Mean Value” was 2.35 % of human insulin.
B2 was tested, and the “Lipogenesis in rat adipocytes [Potency (%)] Mean Value” was 3.83 % of human insulin.
B3 was tested, and the “Lipogenesis in rat adipocytes [Potency (%)] Mean Value” was 2.08 % of human insulin.
In the case of B4, the “Lipogenesis in rat adipocytes [Potency (%)] Mean Value” is reported as 4.39 % of human insulin.
B5 was tested, and the “Lipogenesis in rat adipocytes [Potency (%)] Mean Value” was 3.02 % of human insulin.
With B6 the “Lipogenesis in rat adipocytes [Potency (%)] Mean Value” was 0.95 % of human insulin.
With B7 the “Lipogenesis in rat adipocytes [Potency (%)] Mean Value” was 3.02 % of human insulin.

Each binder was assayed against insulin receptor A (UniProt P06213-2 28-1370, limits assumed) (assay: insulin receptor binding assay as in Vienberg et al. 2011; relative to human insulin on insulin receptor A (100%)).
Chain of insulin receptor A (P06213 other isoform, or with tags, fused parts or gaps limits assumed): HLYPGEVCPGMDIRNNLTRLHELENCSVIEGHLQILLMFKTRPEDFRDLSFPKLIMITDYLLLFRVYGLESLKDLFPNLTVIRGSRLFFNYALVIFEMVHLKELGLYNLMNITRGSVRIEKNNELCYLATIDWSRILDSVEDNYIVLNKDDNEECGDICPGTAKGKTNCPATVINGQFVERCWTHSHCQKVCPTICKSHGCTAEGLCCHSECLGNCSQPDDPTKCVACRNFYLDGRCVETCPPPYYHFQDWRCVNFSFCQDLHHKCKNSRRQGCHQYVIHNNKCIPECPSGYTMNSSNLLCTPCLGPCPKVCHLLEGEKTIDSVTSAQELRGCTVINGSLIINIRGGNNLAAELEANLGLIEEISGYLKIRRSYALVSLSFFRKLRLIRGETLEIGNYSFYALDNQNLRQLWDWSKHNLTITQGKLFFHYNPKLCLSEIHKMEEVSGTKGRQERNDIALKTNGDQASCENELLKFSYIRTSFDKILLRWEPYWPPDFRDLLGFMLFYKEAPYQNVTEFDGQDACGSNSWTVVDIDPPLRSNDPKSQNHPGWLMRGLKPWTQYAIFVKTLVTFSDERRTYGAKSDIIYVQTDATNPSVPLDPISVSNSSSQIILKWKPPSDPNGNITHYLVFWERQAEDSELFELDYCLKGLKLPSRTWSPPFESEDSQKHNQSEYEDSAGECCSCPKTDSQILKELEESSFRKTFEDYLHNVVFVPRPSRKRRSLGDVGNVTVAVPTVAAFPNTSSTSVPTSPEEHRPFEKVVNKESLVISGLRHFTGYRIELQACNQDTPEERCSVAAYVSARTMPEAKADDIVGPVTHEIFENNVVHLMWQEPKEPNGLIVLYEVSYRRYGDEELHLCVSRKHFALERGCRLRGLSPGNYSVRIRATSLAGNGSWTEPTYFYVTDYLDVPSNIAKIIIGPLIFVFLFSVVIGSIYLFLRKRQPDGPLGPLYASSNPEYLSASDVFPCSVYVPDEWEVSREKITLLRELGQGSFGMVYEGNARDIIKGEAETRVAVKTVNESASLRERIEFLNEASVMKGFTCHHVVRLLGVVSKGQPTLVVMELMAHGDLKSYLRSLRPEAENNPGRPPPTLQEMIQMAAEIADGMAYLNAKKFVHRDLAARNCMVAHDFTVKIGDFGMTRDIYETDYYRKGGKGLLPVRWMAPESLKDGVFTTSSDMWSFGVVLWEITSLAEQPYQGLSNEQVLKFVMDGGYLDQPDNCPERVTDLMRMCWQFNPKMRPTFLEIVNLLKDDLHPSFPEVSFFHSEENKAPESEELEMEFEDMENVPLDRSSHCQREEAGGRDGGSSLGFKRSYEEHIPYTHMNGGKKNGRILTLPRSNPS
For B8, the “Insulin receptor affinity [IC50 relative to HI (%)]” value was 1.07%.
With B1 the “Insulin receptor affinity [IC50 relative to HI (%)]” value was 1.85%.
With B2 the “Insulin receptor affinity [IC50 relative to HI (%)]” value was 4.6%.
For B3, the “Insulin receptor affinity [IC50 relative to HI (%)]” value was 4.49%.
B4 was tested, and the “Insulin receptor affinity [IC50 relative to HI (%)]” value was 3.98%.
B5 was tested, and the “Insulin receptor affinity [IC50 relative to HI (%)]” value was 4%.
B9 was tested, and the “Insulin receptor affinity [IC50 relative to HI (%)]” value was 3.85%.
For B6, the “Insulin receptor affinity [IC50 relative to HI (%)]” value was 2.1%.
For B10, the “Insulin receptor affinity [IC50 relative to HI (%)]” value was 2.47%.
B7 was tested, and the “Insulin receptor affinity [IC50 relative to HI (%)]” value was 2.96%.
For B11, the “Insulin receptor affinity [IC50 relative to HI (%)]” value was 5.07%.
